In experiment [1] the target is T1, Recombinant His6-Rom2 CNH (862-1194), citron homology domain of Aspergillus fumigatus Rom2 (Aspergillus fumigatus, UniProt Q4WUI2 862-1194, biotinylated using the EZLink NHS-Peg4-Biotin reagent (for BLI)).
T1 construct: Rom2 (guanine nucleotide exchange factor of Rho1), Aspergillus fumigatus, UniProt Q4WUI2, CNH domain construct residues 862-1194; Cloned into a noncleavable 6His version of pGEX6P1 with primers P23 and P24, then the C terminus was truncated with primers P19 and P20; The N-terminal end of the tag is read from the printed name 'His6-Rom2 CNH'; also called AfRom2 CNH; AfRom2CNH; source: E. coli BL21 …
T1 sequence (looked up): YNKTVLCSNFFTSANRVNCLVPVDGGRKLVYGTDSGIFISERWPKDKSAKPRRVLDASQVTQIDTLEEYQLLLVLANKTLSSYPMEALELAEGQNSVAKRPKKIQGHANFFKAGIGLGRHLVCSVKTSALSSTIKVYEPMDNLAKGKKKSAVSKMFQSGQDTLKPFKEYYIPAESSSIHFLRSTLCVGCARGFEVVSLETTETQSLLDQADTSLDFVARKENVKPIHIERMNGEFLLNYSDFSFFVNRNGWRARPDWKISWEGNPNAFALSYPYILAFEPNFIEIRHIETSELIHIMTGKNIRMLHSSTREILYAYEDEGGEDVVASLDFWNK
Description: BLI; biotinylated AfRom2 CNH on super streptavidin (SSA) biosensors, apo AfRho1 (no nucleotide) in solution, Octet Htx; 25 mM Hepes, 150 mM NaCl, 0.5 mM TCEP pH 7.5; six-point series from 1 mM in threefold dilutions. As to conditions: both partners purified. In general terms: Biolayer interferometry detects binding as a change in optical thickness at a sensor tip.

Experiment [2] addresses T1, Recombinant His6-Rom2 CNH (862-1194), …. Description: BLI; biotinylated AfRom2 CNH on super streptavidin (SSA) biosensors, AfRho1 with GDP or GTPγS (saturating nucleotide) in solution, Octet Red 384; 25 mM Hepes, 150 mM NaCl, 0.5 mM TCEP pH 7.5; six-point series from 1 mM in threefold dilutions. The note with it: both partners purified.

B1: Recombinant AfRho1 (residues 1 to 181) with F25N mutation (enzyme)
chain: not shown
notes: Rho1 GTPase, Aspergillus fumigatus, residues 1 to 181, F25N introduced for protein stability; Expressed from pGEX6P1; GST removed with PreScission protease; Used without nucleotide, with GDP or with GTPγS in BLI; also called apo AfRho1; AfRho1-GDP; source: E. coli BL21 (non-DE3), purified (Glutathione-Sepharose, PreScission cleavage, Superdex 75)
For B1, the Kd is 80 µM in experiment [1] and 200 µM in experiment [2].

What is called Kd is the constant that tells how readily two partners part at equilibrium.

(Values after PMC8488606, “The citron homology domain as a scaffold for Rho1 signaling” (Proceedings of the National Academy of Sciences of the …, 2021).)
